The chains are these.
B1: Interleukin-1 receptor-associated kinase 4 (Homo sapiens), Q9NWZ3 (parent)
chain: MNKPITPSTYVRCLNVGLIRKLSDFIDPQEGWKKLAVAIKKPSGDDRYNQFHIRRFEALLQTGKSPTSELLFDWGTTNCTVGDLVDLLIQNEFFAPASLLLPDAVPKTANTLPSKEAITVQQKQMPFCDKDRTLMTPVQNLEQSYMPPDSSSPENKSLEVSDTRFHSFSFYELKNVTNNFDERPISVGGNKMGEGGFGVVYKGYVNNTTVAVKKLAAMVDITTEELKQQFDQEIKVMAKCQHENLVELLGFSSDGDDLCLVYVYMPNGSLLDRLSCLDGTPPLSWHMRCKIAQGAANGINFLHENHHIHRDIKSANILLDEAFTAKISDFGLARASEKFAQTVMTSRIVGTTAYMAPEALRGEITPKSDIYSFGVVLLEIITGLPAVDEHREPQLLLDIKEEIEDEEKTIEDYIDKKMNDADSTSVEAMYSVASQCLHEKKNKRPDIKKVQQLLQEMTAS
partner: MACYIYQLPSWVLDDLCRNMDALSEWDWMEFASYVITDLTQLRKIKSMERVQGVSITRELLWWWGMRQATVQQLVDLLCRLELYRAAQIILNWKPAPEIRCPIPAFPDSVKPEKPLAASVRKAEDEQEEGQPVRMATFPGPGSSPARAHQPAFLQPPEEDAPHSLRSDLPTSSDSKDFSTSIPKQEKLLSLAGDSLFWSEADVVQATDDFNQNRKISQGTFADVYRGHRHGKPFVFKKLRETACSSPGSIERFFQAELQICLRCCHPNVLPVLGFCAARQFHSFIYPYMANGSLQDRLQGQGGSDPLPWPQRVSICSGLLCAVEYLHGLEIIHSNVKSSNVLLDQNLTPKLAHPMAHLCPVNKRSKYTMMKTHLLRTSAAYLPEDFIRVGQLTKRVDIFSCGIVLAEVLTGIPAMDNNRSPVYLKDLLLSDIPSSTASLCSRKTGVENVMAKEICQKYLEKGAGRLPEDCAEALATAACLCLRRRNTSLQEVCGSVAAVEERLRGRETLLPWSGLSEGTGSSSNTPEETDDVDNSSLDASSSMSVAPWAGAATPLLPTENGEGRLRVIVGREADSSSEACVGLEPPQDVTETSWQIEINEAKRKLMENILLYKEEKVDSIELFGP
B2: Interleukin-1 receptor-associated kinase 4 (Homo sapiens), Q9NWZ3 (parent)
chain: B1 chain

In one experiment the parent is B1. Particulars: with irak2_human IRAK2, O43187.
For the variant R54D, the “effect of a mutation on the interaction” value was “disrupting interaction”.

Take A95K: the “effect of a mutation on the interaction” value is reported as “disrupting interaction”.

On to F51D, for which the “effect of a mutation on the interaction” value was “disrupting interaction”.

Take Q50K: the “effect of a mutation on the interaction” value was “disrupting interaction”.

As for F25D, the “effect of a mutation on the interaction” value is “disrupting interaction”.

The variants in the next experiment derive from B2. Particulars: with MYD88, Q99836-1.
Sequence of MYD88, Q99836-1 (Q99836 whole entry): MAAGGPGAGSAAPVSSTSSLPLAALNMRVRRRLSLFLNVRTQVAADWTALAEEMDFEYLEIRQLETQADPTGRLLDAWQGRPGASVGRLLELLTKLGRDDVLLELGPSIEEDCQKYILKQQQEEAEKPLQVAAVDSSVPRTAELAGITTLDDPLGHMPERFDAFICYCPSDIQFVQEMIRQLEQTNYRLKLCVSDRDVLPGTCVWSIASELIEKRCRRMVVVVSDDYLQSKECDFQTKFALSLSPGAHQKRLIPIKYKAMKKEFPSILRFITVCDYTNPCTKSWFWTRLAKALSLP
As for E69K, the “effect of a mutation on the interaction” value is “disrupting interaction”.

As for N78E, the “effect of a mutation on the interaction” value is recorded as “disrupting interaction”.

For the variant V16E;R20E, the “effect of a mutation on the interaction” value is given as “disrupting interaction”.

Take R12A: the “effect of a mutation on the interaction” value is given as “disrupting interaction”.

As for T76E, the “effect of a mutation on the interaction” value was “disrupting interaction”.
